Literature values as cited in article PMC2613885.

Molecular target: Robo1 (Homo sapiens) (UniProt Q9Y6N7)
Sequence (Q9Y6N7 26-897): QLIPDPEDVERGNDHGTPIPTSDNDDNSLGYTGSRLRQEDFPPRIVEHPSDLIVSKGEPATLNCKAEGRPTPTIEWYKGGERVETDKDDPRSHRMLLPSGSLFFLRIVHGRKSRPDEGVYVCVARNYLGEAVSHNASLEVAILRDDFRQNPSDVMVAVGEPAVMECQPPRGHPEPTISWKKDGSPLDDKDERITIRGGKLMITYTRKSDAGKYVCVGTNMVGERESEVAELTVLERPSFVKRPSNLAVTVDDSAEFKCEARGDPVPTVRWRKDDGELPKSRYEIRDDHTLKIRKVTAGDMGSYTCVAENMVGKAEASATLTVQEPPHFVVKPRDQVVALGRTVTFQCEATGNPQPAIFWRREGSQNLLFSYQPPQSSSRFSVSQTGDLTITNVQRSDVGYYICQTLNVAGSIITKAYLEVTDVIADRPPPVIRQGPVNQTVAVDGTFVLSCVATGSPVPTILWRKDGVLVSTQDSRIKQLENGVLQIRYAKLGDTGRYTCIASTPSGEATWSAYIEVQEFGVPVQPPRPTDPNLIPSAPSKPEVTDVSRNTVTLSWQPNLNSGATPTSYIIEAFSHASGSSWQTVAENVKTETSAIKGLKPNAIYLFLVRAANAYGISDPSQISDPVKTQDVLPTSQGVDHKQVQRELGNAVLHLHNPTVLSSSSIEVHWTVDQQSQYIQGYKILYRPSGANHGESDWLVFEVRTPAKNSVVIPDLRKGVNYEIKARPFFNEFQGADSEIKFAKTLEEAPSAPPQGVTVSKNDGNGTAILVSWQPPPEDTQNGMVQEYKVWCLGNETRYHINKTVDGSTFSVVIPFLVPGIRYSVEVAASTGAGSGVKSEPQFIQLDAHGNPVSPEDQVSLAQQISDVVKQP

Slit2, sequence (O94813 31-1529): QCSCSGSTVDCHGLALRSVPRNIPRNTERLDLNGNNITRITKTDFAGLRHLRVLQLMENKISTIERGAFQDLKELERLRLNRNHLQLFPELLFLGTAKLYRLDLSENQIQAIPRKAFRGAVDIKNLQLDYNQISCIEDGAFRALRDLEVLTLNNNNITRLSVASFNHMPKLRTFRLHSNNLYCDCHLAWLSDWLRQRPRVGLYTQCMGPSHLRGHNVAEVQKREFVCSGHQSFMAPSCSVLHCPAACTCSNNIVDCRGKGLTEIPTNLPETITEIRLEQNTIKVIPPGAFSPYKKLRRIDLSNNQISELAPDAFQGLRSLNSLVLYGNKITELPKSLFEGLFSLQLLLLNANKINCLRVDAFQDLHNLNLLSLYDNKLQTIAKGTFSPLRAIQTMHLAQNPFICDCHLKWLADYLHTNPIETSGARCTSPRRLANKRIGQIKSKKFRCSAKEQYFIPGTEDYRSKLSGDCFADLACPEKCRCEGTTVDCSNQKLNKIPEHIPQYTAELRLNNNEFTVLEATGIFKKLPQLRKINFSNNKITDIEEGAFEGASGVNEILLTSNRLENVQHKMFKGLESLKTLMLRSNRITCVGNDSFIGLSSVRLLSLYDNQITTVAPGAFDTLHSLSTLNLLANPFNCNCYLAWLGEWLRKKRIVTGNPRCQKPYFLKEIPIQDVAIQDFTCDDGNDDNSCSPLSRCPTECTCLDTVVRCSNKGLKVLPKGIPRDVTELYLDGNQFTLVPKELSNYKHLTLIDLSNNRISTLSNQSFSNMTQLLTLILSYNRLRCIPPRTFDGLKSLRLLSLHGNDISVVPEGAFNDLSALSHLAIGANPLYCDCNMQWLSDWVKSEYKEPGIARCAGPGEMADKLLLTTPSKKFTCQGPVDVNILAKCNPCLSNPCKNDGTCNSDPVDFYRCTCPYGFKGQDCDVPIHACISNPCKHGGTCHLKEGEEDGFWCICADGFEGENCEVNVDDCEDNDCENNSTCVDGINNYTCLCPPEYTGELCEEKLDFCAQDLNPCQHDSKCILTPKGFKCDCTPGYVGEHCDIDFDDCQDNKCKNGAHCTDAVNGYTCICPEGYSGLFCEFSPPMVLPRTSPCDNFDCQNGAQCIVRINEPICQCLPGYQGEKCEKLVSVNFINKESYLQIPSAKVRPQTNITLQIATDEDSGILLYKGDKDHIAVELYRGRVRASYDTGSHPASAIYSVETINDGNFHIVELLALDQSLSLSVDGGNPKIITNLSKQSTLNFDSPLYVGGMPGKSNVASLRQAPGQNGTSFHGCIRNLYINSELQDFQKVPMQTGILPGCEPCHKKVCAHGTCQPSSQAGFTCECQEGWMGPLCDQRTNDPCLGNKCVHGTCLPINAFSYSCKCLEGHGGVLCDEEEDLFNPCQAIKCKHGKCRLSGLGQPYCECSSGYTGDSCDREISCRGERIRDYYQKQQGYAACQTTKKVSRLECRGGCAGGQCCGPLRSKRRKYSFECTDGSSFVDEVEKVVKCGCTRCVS

For Slit2 (from UniProt O94813), the Kd is given as 9 nM.
